The test system of test [1] is mice. The test can be described thus: Water maze test, scopolamine-caused spatial cognition impairment. It counts as in vivo, mouse. On the procedure:
The Moths water maze set up contained a round water pool (45 cm deep with a diameter of 90 cm) filled with milk-mixed water (22±1° C.) to a depth of 30 cm. It was placed in a dark, sound-shielded room in which various visual cues were established. A white platform (6 cm in diameter, 29 cm in height) was inside the pool, with the top thereof 1 cm below the water surface in the center of one quadrant of the maze
On day 1, the mice were trained to swim for 60 sec. Subsequently, the training was conducted four times a day for four consecutive days, with the platform inside the pool. When the mouse reached the platform, it was allowed to sit on the platform only for 10 sec. If the failed in reaching the platform within 60 sec, it was guided to reach the platform and stay for 10 sec thereon. Afterwards, the mouse was returned back to the home cage and allowed to dry its body under an IR lamp. The time interval between trials was 30 sec.
The time to reach the hidden platform was recorded in each trial using a video camera-based Ethovision System (Nodulus, Wageningen, the Netherlands).
For each training trial, the mouse was placed into the pool at one quadrant at positions which were different day by day. One day after the final training trial, the mouse was evaluated. In this regard, after the platform was removed, the mouse was allowed to swim for 60 sec in search for the platform, and the time to swim in the quadrant where the platform was located was recorded. Gintonin (25, 50, or 100 mg/kg, p.o.) in physiological saline was administered 1 hr before test, every day. Tacrine (10 mg/kg, p.o.) was used as a positive control. Memory impairment was induced by scopolamine (0.9 mg/kg i.p.) 30 min after gintonin administration. For a negative control, only physiological saline was administered.
An examination was made of simple spatial reasoning. To this end, while the mice were allowed to swim in the absence of the rescue platform in the pool, the time period during which the mice swam in the quadrant where the rescue platform had been located was recorded.

Test [2] has as its system rat adrenal gland. Kind of test: Catecholamine secretion from perfused rat adrenal gland. On the procedure: Male rats (Sprague-Dawley, each weighing 200 to 300 g) was anesthetized by an to intraperitoneal injection of thiopental sodium (50 mg/kgm), and the adrenal gland was excised from the rats according to the method of Wakade and Woo et al. (Wakade, J Physiol. 313, 463-480, 1981; Woo et al., Korean J Physiol Pharmacol., 12, 155-164, 2008).
Briefly, a cannula was inserted so as to perfuse the adrenal gland, as illustrated in FIG. 18. During the cannula insertion, heparin (400 IU/ml) was infused into the vena cava in order to prevent blood coagulation. Then, the adrenal gland was isolated from the body, and transferred to a leucite chamber which was kept at 37±1° C.
The adrenal gland was perfused at a rate of 0.33 ml/min with the aid of a peristaltic pump (ISCO® pump, WIZ Co. U.S.A.). The perfusion solution was a Krebs-bicarbonate solution: (mM) NaCl, 118.4; KCl, 4.7; CaCl2, 2.5; MgCl2, 1.18; NaHCO3, 25; KH2PO4, 1.2; glucose, 11.7.
The perfusion solution was continuously aerated with 95% O2+5% CO2 gas, and was maintained to have pH 7.4-7.5. In addition, the perfusion solution was supplemented with EDTA ([…]) and ascorbic acid ([…]) to prevent the oxidation of catecholamines (Woo et al., Korean J Physiol Pharmacol., 12, 155-164, 2008).
Gintonin (1˜10 μg/ml) or cyclopiazonic acid (10 μM) was applied by perfusion for 4 min while acetylcholine (5.32 mM) was infused at a dose of 50 μl using a three-way stopcock.
Prior to treatment with a material stimulating catecholamine secretion, the adrenal gland was left until the secretion of catecholamine in the absence of stimuli reached a constant level, that is, a background or basal level, which typically took 5˜10 min. Then, the adrenal gland was perfused with gintonin or other drugs, and perfusates effluent from the adrenal gland were collected at regular intervals of 4 min, and the amount of catecholamines released by drug stimulation was calculated by subtracting the background or basal level from measurements (Woo et al., Korean J Physiol Pharmacol., 12, 155-164, 2008).
In order to examine the effect of gintonin on the spontaneous secretion of catecholamine and on the stimulus-induced secretion of catecholamine, the adrenal gland was perfused with a Krebs solution containing gintonin alone or in combination with other drugs, after which the perfusates were collected until the amount of secreted catecholamine reached the background level. The collected adrenal perfusates were stored in tubes maintained at 4° C.
Catecholamine in the perfusates was quantified using a fluorospectrophotometer (Kontron Co., Milano, Italy) according to the methods of Anton and Sayre, and Lim. In this regard, each perfusate amounted to 0.2 ml (Woo et al., Korean J Physiol Pharmacol., 12, 155-164, 2008).

B1: gintonin: ginseng-derived glycolipoprotein; structural protein of ginseng major latex-like protein (MLP151) and ribonuclease-like storage proteins; crude gintonin used in tests (protein)
chain 1: MGLTGKLICQTGIKSDGDVFHELFGTRPHHVPNITPANIQGCDLHEGEFGKVGSVVIWNYSIDGNAMIAKEEIVAIDEEDKSVTFKVVEGHLFEEFKSIVFSVHVDTKGEDNLVTWSIDYEKLNESVKDPTSYLDFLLSVTRDIEAHHLPK
chain 2: RSDYPWAMFALRLQWPAGFCEVNNACDTKSLLNTFTIHGLYPYNAKGTPALYCDGTAFDVNSVSDFLAEMHLAWPSHETNTEDIQFWEHEWKKHGRCSEALLKQTDYFRTALAFRKAFDIVGLLNQEGIYPNNDLYRPKMIKEAIKKHLNAVPEIDFTKNENSEYVLTDINVCVNQQATRFVDCPTDDATDDYRLKFVRLPSKMKFADPRTNSII
With B1, the “swimming time in the quadrant where the platform had been located” value in test [1] (gintonin 25 mg/kg p.o. + scopolamine) is 21.33 ± 3.13 s; in test [1] (gintonin 50 mg/kg p.o. + scopolamine), 24.53 ± 3.91 s; in test [1] (gintonin 100 mg/kg p.o. + scopolamine) it was 25.17 ± 4.43 s. Besides, the “latent time to reach hidden platform” value in test [1] (gintonin 25, 50, 100 mg/kg p.o. + scopolamine, day 1 to day 4) is “reduce the latent time extended by scopolamine significantly and in a dose-dependent manner”. The “catecholamine secretion after acetylcholine” value in test [2] (gintonin 1 μg/ml, pre-treatment with 5.32 mM acetylcholine) is given as “incapacitated the effect”; in test [2] (gintonin 3 μg/ml, 5.32 mM acetylcholine), “continually promote the secretion of catechlamine”; in test [2] (gintonin 10 μg/ml, 5.32 mM acetylcholine), “stimulates the secretion of catecholamine in the early stage, but could not induce the secretion since then”. In addition, the catecholamine secretion entry in test [2] (gintonin 1~10 μg/ml, perfusion at 15-min intervals) is on record as “continually secrete catecholamine in a dose-dependent manner”.

Source of the values: patent US20140234868A1, “USE FOR GLYCOLIPOPROTEIN GINTONIN, ISOLATED AND IDENTIFIED FROM GINSENG, AS A NATURAL MEDICAL-PLANT DERIVED LIGAND” (KONKUK UNIVERSITY INDUSTRIAL COOPERATION CORP., priority 2011, published 2014).
